Source: publication PMC7272049
One block for each substance: values may come before it.

How the values were obtained:
mPD-1 mIgG2a = mPD-1 mIgG2a (UniProt Q02242); assay: FACS titration; conditions: cells expressing PD-L1 titrated with recombinant PD-1 Fc-fusion; anti-mouse Alexa 488 secondary; single-site binding model
mB7-1 mIgG2a = mB7-1 mIgG2a (UniProt Q00609); assay: FACS titration; conditions: cells expressing PD-L1 titrated with recombinant B7-1 Fc-fusion; anti-mouse Alexa 488 secondary; single-site binding model
B7-1 (Homo sapiens) = B7-1 (Homo sapiens) (UniProt P33681); conditions: cited from earlier work
B7-1 (Mus musculus) = B7-1 (Mus musculus) (UniProt Q00609); conditions: cited from earlier work

Sequence of B7-1 (P33681 35-242): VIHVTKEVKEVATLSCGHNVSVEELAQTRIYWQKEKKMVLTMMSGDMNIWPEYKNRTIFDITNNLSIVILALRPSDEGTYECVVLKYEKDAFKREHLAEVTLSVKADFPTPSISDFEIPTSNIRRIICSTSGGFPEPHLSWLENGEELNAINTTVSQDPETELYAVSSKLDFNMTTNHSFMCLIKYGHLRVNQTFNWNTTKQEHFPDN
Sequence of PD-L1 (Q9EP73 19-239): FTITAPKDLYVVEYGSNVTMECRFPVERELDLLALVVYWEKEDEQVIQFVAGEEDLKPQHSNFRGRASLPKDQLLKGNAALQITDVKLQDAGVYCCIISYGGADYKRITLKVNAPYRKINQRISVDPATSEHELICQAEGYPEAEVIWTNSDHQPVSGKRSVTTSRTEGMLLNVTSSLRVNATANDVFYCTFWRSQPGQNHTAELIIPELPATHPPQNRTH

other: Bmax (mPD-1 mIgG2a): 93.4
other: Bmax (mB7-1 mIgG2a): 73.1
Substance: WT mPD-L1 mCherry (from UniProt Q9EP73) D28R

Substance: B7-1 (from UniProt P33681)
Kd (B7-1 (Homo sapiens)): 35 µM

Substance: PD-L1 (from UniProt Q9EP73)
Kd (B7-1 (Mus musculus)): 1.6 µM
